{
  "source": "patent US20250025499A1",
  "about": "(published 2025)",
  "binders": {"B1": {"name": "TCR24 (SF3B1^K700E/B*40:01-specific TCR from clone 24) (TCR, V domains shown)", "Valpha": "AQSVTQPDIHITVSEGASLELRCNYSYGATPYLFWYVQSPGQGLQLLLKYFSGDTLVQGIKGFEAEFKRSQSSFNLRKPSVHWSDAAEYFCAVAAKDSSYKLIFGSGTRLLVRP", "Vbeta": "SAVISQKPSRDICQRGTSLTIQCQVDSQVTMMFWYRQQPGQSLTLIATANQGSEATYESGFVIDKFPISRPNLTFSTLTVSNMSPEDSSIYLCSDRGQVVGETQYFGPGTRLLVL"}},
  "key": {"[1]": {"target": "T1, SF3B1 K700E peptide on HLA-B*40:01 (human)", "T1 peptide": "QEVRTISAL", "experiment": "peptide titration 51Cr-release assay; clone 24 against autologous LCL pulsed with varying peptide concentrations; T cell clone or line", "experimental": "(§1) LCL were pulsed with QEVRTISAL (SEQ ID NO: 1) peptide at 1000 ng/ml prior to co-culture (>5 biological replicates per HLA). […] The tested peptides include […] (SEQ ID NO: 50), […] (SEQ ID NO: 64), and […] (SEQ ID NO: 65). QEVRTISAL (SEQ ID NO: 1) peptide and the wild-type equivalent QKVRTISAL (SEQ ID NO: 2) were included as controls (3 technical replicate experiments). […] For all experiments, mean and standard error of the mean (SEM) are shown.\n(§2) Cytotoxicity was measured in short-term (4-hour) assays using 51Cr-labeled target cells. Briefly, target cells were labeled with ⁵¹Cr overnight (cell lines) or for 6 hours (primary leukemia) at 37° C. and 5% CO₂. Effector cells were added to labeled target cells and incubated for 4 hours. After co-incubation, supernatant was harvested for γ-counting. Specific lysis was calculated using a standard formula. Targets used included autologous LCL with and without peptides in varying concentrations. All targets were washed to remove excess 51Cr and residual interferon-γ or peptide before co-culture initiation."}, "[2]": {"target": "T2, SF3B1 K700E epitope with valine at position 8 peptide on HLA-B*40:01 (human)", "T2 peptide": "QEVRTISVL", "experiment": "killing", "experimental": "as §1, §2"}, "[3]": {"target": "T3, SF3B1 K700E peptide on HLA-B*40:02 (human)", "T3 peptide": "QEVRTISAL", "experiment": "killing", "experimental": "as §1, §2"}, "[4]": {"target": "T4, spermatogenesis-associated protein 1 (SPATA1) peptide on HLA-B*40:01 (human)", "T4 peptide": "VEDRTIRQL", "experiment": "killing", "experimental": "as §1, §2"}, "[5]": {"target": "T5, Gem-associated protein 5 (GEMIN5) peptide on HLA-B*40:01 (human)", "T5 peptide": "IEPRTIFCL", "experiment": "killing", "experimental": "as §1, §2"}, "[6]": {"target": "T6, SF3B1 K700E epitope with alanine at position 7 peptide on HLA-B*40:01 (human)", "T6 peptide": "QEVRTIAAL", "experiment": "killing", "experimental": "as §1, §2"}, "[7]": {"target": "T7, SF3B1 K700E epitope with alanine at position 4 peptide on HLA-B*40:01 (human)", "T7 peptide": "QEVATISAL", "experiment": "killing", "experimental": "as §1, §2"}, "[8]": {"target": "T8, SF3B1 K700E epitope with alanine at position 6 peptide on HLA-B*40:01 (human)", "T8 peptide": "QEVRTASAL", "experiment": "killing", "experimental": "as §1, §2"}, "[9]": {"target": "T9, mitochondrial trifunctional enzyme subunit alpha (HADHA) peptide on HLA-B*40:01 (human)", "T9 peptide": "PEERTIEYL", "experiment": "killing", "experimental": "as §1, §2"}, "[10]": {"target": "T10, SF3B1 K700E epitope with alanine at position 9 peptide on HLA-B*40:01 (human)", "T10 peptide": "QEVRTISAA", "experiment": "killing", "experimental": "as §1, §2"}, "[11]": {"target": "T11, SF3B1 K700E epitope with glycine at position 8 peptide on HLA-B*40:01 (human)", "T11 peptide": "QEVRTISGL", "experiment": "killing", "experimental": "as §1, §2"}, "[12]": {"target": "T12, SF3B1 K700E epitope with alanine at position 2 peptide on HLA-B*40:01 (human)", "T12 peptide": "QAVRTISAL", "experiment": "killing", "experimental": "as §1, §2"}, "[13]": {"target": "T13, CBFB-MYH11 type A peptide on HLA-B*40:01 (human)", "T13 peptide": "REEMEVHEL", "experiment": "killing", "experimental": "as §1, §2"}, "[14]": {"target": "T14, SF3B1 K700E epitope with alanine at position 5 peptide on HLA-B*40:01 (human)", "T14 peptide": "QEVRAISAL", "experiment": "killing", "experimental": "as §1, §2"}, "[15]": {"target": "T15, SF3B1 K700E epitope with alanine at position 1 peptide on HLA-B*40:01 (human)", "T15 peptide": "AEVRTISAL", "experiment": "killing", "experimental": "as §1, §2"}, "[16]": {"target": "T16, SF3B1 wild-type peptide on HLA-B*40:01 (human)", "T16 peptide": "QKVRTISAL", "experiment": "killing", "experimental": "as §1, §2"}, "[17]": {"target": "T17, SF3B1 K700E epitope with alanine at position 3 peptide on HLA-B*40:01 (human)", "T17 peptide": "QEARTISAL", "experiment": "killing", "experimental": "as §1, §2"}, "[18]": {"target": "T18, alkylglycerone-phosphate synthase (AGPS) peptide on HLA-B*40:01 (human)", "T18 peptide": "DETRTIISL", "experiment": "killing", "experimental": "as §1, §2"}},
  "data": [
    {"binder": "B1", "values": [
      {"measurement": "EC50 of peptide", "setting": "[1]", "result": "~0.1", "unit": "ng/mL"},
      {"measurement": "binding result", "setting": "[2]", "result": "recognises"},
      {"measurement": "binding result", "setting": "[3]", "result": "no recognition"},
      {"measurement": "binding result", "setting": "[4]", "result": "no recognition"},
      {"measurement": "binding result", "setting": "[5]", "result": "no recognition"},
      {"measurement": "binding result", "setting": "[6]", "result": "recognises"},
      {"measurement": "binding result", "setting": "[7]", "result": "no recognition"},
      {"measurement": "binding result", "setting": "[8]", "result": "no recognition"},
      {"measurement": "binding result", "setting": "[9]", "result": "no recognition"},
      {"measurement": "binding result", "setting": "[10]", "result": "no recognition"},
      {"measurement": "binding result", "setting": "[11]", "result": "recognises"},
      {"measurement": "binding result", "setting": "[12]", "result": "no recognition"},
      {"measurement": "binding result", "setting": "[13]", "result": "no recognition"},
      {"measurement": "binding result", "setting": "[14]", "result": "no recognition"},
      {"measurement": "binding result", "setting": "[15]", "result": "recognises"},
      {"measurement": "binding result", "setting": "[16]", "result": "no recognition"},
      {"measurement": "binding result", "setting": "[17]", "result": "recognises"},
      {"measurement": "binding result", "setting": "[18]", "result": "no recognition"}
    ]}
  ]
}
